Data from patent US20230002757A1.

What follows are binders tested against KLH (Keyhole Limpet Hemocyanin) (keyhole limpet) (assay: ELISA on KLH).

Row | Binder | EC50
1 | NGS602-OLIGO_149 (VHH) VHH: QVQLVESGGGLVQAGDSLRLSCAASGRTFSSYAMAWFRRPPGKAREFVALIRWSNGRTAVVDSVKGRFTASRDNAKNTGYLQMDSLKSEDTAVYYCAACDQALDPPRCNDWGQGTQVTVSS | 147 pM
2 | NGS602-OLIGO_221 (VHH) VHH: QVQLVESGGGLVQAGESLRLSCVASGRTFSSYAMGWFRQAPGQEREFVARISRRGTNTYYADSVRGRFTISRDNAKNTVYLQMNSLKPEDTAVYYCAADRSDVFEKDPGYYDYWGQGAQVTVSS | 220000 pM
3 | NGS602-OLIGO_151 (VHH) VHH: EVQLVESGGGLVQPGGSLRLSCTASGFTLSTSPVSWARQAPGKGPEWLAGIYSDGRTSNLVSLRGRFTISRDNAKNTVYLQMNSLLPEDTALYYCAIGAAAVGGLRGQGTQVTVSS | 409 pM
4 | NGS602-OLIGO_31 (VHH) VHH: QVQLVESGGGLVQAGDSLRLSCTASGTTFDRYHMGWFRQAPGMERHVVAHISWSGANTYVADSMKGRFTISRDNAKNTAYLQINNLKFEDTALYYCAAGSYLAVPGSRWDYWGQGTQVTVSS | 1010 pM
5 | NGS602-OLIGO_2 (VHH) VHH: QVQLVESGGGLVQPGGSLRLSCAASESIRSIYAMGWYRQAPGKQRELVALVTDDGSTDYVDSVKGRFTVSRDSAKNTVYLQMNSLKPEDTAVYHCYVEGSTHYDPVREYWGKGTLVTVSS | 1740 pM
6 | NGS602-OLIGO_186 (VHH) VHH: QVQLAESGGGLVQAGDSLRLSCAASGRSVSSYAMGWFRQAPGKEREFVAAISWSGESTHYADSVKGRFTISRDNAENTVYLQMNSLKPEDTAVYYCASYLSGHYYFGIGRDPPFGSWGQGTQVTVSS | 280 pM
7 | NGS602-OLIGO_28 (VHH) VHH: QVQLVESGGGLVRAGGSLRLSCAASGRAFSSYPMGWFRRAPGKEREFVAAISLSGSKQYYVDSVKGRFTISRDNAKNTVSLQMNSLKPEDTAVYYCAALKDGEPPAVDYWGQGTQVTVSS | 707 pM
8 | NGS602-OLIGO_205 (VHH) VHH: RVQLVESGGGLVQPGGSLRLSCTASGLPLNTAAMSWYRQTPGKERELVASISITGDSTTYADSVKGRFTISRDNVKNIVYLQMDILKPEDTAVYYCTRAPWDYKYWGQGTQVTVSS | 1160 pM
9 | NGS602-OLIGO_35 (VHH) VHH: QVSLVESGGGLVQAGGSLRLSCAASGRTFRRSAMGWFRRPPGKEREFVAAITSSGGSIYDPDIAKDRFTISRDNSKTSVYLQMNNLKPEDTAVYYCSLKTTYSGGPYDYTKGPEYDYWGQGTQVTVSS | 291 pM
10 | NGS602-OLIGO_185 (VHH) VHH: QVQLVESGGGLVQAGGSLRLSCAASGRTSSRYVMGWFRQSPGKEREFVAAISANGRSTNYAGSVNGRFKISRDGAKDKVDLQMNSLKPEDTAVYFCATNMAFSSSSNFPANYDVWGQGTQVTVSS | 77 pM
11 | NGS602-OLIGO_266 (VHH) VHH: QVQLVESGGGLVQAGGSLRLSCAASGRTFFTYPMGWFRQAPGKERQFVAAISGNGDSIDYADSVKGRFTISRDNAKNTLYLQMNSLKPEDAALYYCNAVITHDYTRPLFASWGQGTQVTVSS | 195 pM
12 | NGS602-OLIGO_169 (VHH) VHH: RVQLVESGGGLVQAGGALRLSCVGSGFTFRDTAMAWFRQSPGKEREFVAGFSILSRYADSVKGRFTISRDNDKNTVYLQMNSLKPEDTAVYYCAAGDGTIASVLTTSGVNFWGQGTQVTVSS | 213 pM
13 | NGS602-OLIGO_30 (VHH) VHH: QVQLVESGGGTVQAGGSLRLSCAASGLTFGSYAMEWYRQAPGKERELVATISSGGNTHYLASVKGRFTISRDNDKNTLYLQMNSLKPEDTAVYYCAAKYGWTGIWYAPSDYVHLGPGTQVTVSS | 67 pM
14 | NGS602-OLIGO_42 (VHH) VHH: QVQLVESGGGLVQAGGSLRLSCLFSGTFGIYGMGWFRQAPGKAREFVAGVSRHGLTTQYADSVKGRFTISRDNAKNTMYLQMNSLKPEDTADYYCARSRLSASLLVTASDYDYWGQGTQVTVSS | 342 pM
15 | NGS602-OLIGO_55 (VHH) VHH: QVQLTESGGGLVQAGASLRLSCVASPDTPSTYTIAWFRRAPGKERDFVANIARAGTTITYADSVKGRFTISKDNARNTVYLQMNNLTPADTAIYYCAAYSPGSIIARDSTQYRYWGQGTRVTVSE | 241 pM
16 | NGS602-OLIGO_152 (VHH) VHH: QVQLVESGGGLVQAGDSLRLSCAASGDNFSRYTFGWFRQAPGKEREFVAVINWSGSYTYVADSVAGRFTMSRDNAKHLVYLQMDSLNTGDTAVYYCAAHWDYGSSSRRQREYDYWGQGTQVIVSS | 638 pM
17 | NGS602-OLIGO_72 (VHH) VHH: QVELVESGGALVQAGGSLKLSCVDSGRSFSSYVVAWFRQAPGKEREFVARVSASGAIRTYADSVRGRFTISRDNTKATVYLQMNSLKSEDTAVFFCAAGGVSTAVHPFKPTSYDFWGQGTQVTVSV | 72 pM
18 | NGS602-OLIGO_12 (VHH) VHH: QVQLVESGGGSVQAGGSLRLSCAASGRTFGRHVMAWFRQAPGREREFVAAISGNGRVTNYALSMKGRFTISRDNANDMVYLQMDGLKPEDTAVYSCATRMAFDSDSNFPATYDVWGQGTQVTVSS | 181 pM
19 | NGS602-OLIGO_359 (VHH) VHH: QVQLVESGGGLVQPGGSLRLSCAASGYSLSFYAMGWYRQSPGKQREVVARIAGPGVTNYADSVMGRFTISRDNAKNMVYLQMNSLEPEDTAVYYCNAGGTRWSVGDYWGKGTLVTVSS | 610 pM
